According to publication PMC13100509, “A milestone in C4 carbon concentration mechanism evolution: structural remodeling of NADP-malic enzyme in Poaceae” (Molecular Biology and Evolution, 2026):
Where “and” joins values, the source holds several entries; their conditions need not be identical. Equal values may be shown once. One block for each molecule: values may come before it.

What was measured:
[1] = biological target: Cyt1-NADP-ME from maize extracts (maize (endogenous in maize etiolated leaves and roots)); assay: native gel or EMSA; native PAGE (7%) of maize extracts of etiolated leaves and roots; in-gel NADP-ME activity assay, active bands excised and identified by mass spectrometry; mobility compared with the recombinant proteins
[2] = biological target: Cyt2-NADP-ME from maize extracts (maize (endogenous in maize etiolated leaves and roots)); assay: as above
[3] = biological target: maize nonC4-NADP-malic enzyme, recombinant wild type (maize (Zea mays)); assay: AUC; sedimentation velocity of recombinant proteins; 20 mM Tris-HCl pH 7.0 or 8.0, 5 mM MgCl2; 1.1 mg/ml (16 uM); 20 °C, 35,000 rpm; c(s) model in SEDFIT; self-association, dimers and tetramers
[4] = biological target: maize nonC4-NADP-malic enzyme, recombinant wild type (maize (Zea mays)); assay: cryo-EM structure; single-particle cryo-EM of His-tagged proteins, 0.2 to 0.5 mg/ml, 20 mM Tris-HCl, 5 mM MgCl2, 40 mM pyruvate, 2 mM NADP, pH 8.0; oligomeric state from the numbers of particles
[5] = biological target: maize nonC4-NADP-malic enzyme, recombinant wild type (maize (Zea mays)); assay: native gel or EMSA; native PAGE (6% or 7%) of purified recombinant proteins, 100 V, 4 °C; Coomassie staining or in-gel NADP-ME activity assay; oligomeric state from mobility against native markers
[6] = biological target: maize nonC4-NADP-malic enzyme, recombinant wild type (maize (Zea mays)); assay: as above; remark: listed apart in the source
[7] = biological target: the molecule itself; assay: AUC; sedimentation velocity of recombinant proteins; 20 mM Tris-HCl pH 7.0 or 8.0, 5 mM MgCl2; 1.1 mg/ml (16 uM); 20 °C, 35,000 rpm; c(s) model in SEDFIT; self-association, dimers and tetramers
[8] = biological target: the molecule itself; assay: native gel or EMSA; native PAGE (7%) of maize extracts of etiolated leaves and roots; in-gel NADP-ME activity assay, active bands excised and identified by mass spectrometry; mobility compared with the recombinant proteins

stoichiometry N [1]: 4
Molecule: Cyt1-NADP-ME from maize extracts (enzyme)

stoichiometry N [2]: 4
Molecule: Cyt2-NADP-ME from maize extracts (enzyme)

stoichiometry N [3]: 2 and 4 | percent tetramers [4]: 10% | stoichiometry N [4]: 2 | stoichiometry N [5]: 2 | stoichiometry N [6]: 4
Molecule: maize nonC4-NADP-malic enzyme, recombinant wild type

B1: maize C4-NADP-malic enzyme, recombinant wild type (enzyme, maize (Zea mays), UniProt P16243 63-636, looked up)
chain: MVSNAETETEKEQEEAAAASEELPVMPWATSVASGYTLLRDPHHNKGLAFTEEERDGHYLRGLLPPAVLSQELQIKKFMNTLRQYQTPLQRYIAMMNLQETDERLFYKLLIDNVVELLPFVYTPTVGEACQKYGSIFGRPQGLYVSLKDKGKVLEVLRNWPHRNIQVICVTDGERILGLGDLGCQGMGIPVGKLALYTALGGVDPSVCLPITIDVGTNNEFLLNDEFYIGLRQKRATGEEYDELIEEFMSAVKQFYGEKVLIQFEDFANHNAFDLLEKYSKSHLVFNDDIQGTASVVLAGLLAALKMVGGTLAEQTYLFLGAGEAGTGIAELIALEISKQTNAPIEECRKKVWLVDSKGLIVDSRKGSLQPFKKPWAHEHEPLKTLYDAVQSIKPTVLIGTSGVGRTFTKEIIEAMSSFNERPIIFSLSNPTSHSECTAEQAYTWSQGRSIFASGSPFAPVEYEGKTFVPGQSNNAYIFPGLGLGLVISGAVRVHEDMLLAASKALADQATQDNFEKGSIFPPFTSIRKISAHIAAAVAGKAYELGLATRLPPPSDLVKYAENCMYTPVYRNYR
notes: C4-NADP-malic enzyme (ZmC4-NADP-ME), plastidic C4 isoform of maize; construct of Alvarez et al. 2019; Vector pET16b::ZmC4-NADP-ME (Alvarez et al. 2019); also called C4-NADP-ME; ZmC4-NADP-ME; source: E. coli Rosetta2 (DE3) or ArcticExpress (DE3), purified (Ni-NTA)
stoichiometry N [7]: 4

B2: C4-NADP-ME from maize extracts (enzyme, UniProt P16243 63-636, looked up)
chain: B1 chain
notes: C4-NADP-malic enzyme, plastidic C4 isoform of maize, identified by mass spectrometry in an active band of a native gel; source: endogenous, extracts of maize etiolated leaves and roots
stoichiometry N [8]: 4
